Results from patent US20140087995A1 (published 2014).
Numbered stars: 1 amine (or outer) side, 2 acyl side, 3 side chain; on linkers, the order of the positions; unused ones are H or OH. Bridge positions count the residues as written; N and C are the ends. Side chains are listed from the residue outwards. Ends that are not written are not given here. * marks the point of attachment. C20 diacid = O=C(O)CCCCCCCCCCCCCCCCCCC(=O)*; γGlu = O=C(O)[C@H](CCC(=O)[*:2])N[*:1]; AEEA = NCCOCCOCC(=O)O

T1: human calcitonin receptor (human, UniProt P30988 25-474)
T1 sequence (looked up): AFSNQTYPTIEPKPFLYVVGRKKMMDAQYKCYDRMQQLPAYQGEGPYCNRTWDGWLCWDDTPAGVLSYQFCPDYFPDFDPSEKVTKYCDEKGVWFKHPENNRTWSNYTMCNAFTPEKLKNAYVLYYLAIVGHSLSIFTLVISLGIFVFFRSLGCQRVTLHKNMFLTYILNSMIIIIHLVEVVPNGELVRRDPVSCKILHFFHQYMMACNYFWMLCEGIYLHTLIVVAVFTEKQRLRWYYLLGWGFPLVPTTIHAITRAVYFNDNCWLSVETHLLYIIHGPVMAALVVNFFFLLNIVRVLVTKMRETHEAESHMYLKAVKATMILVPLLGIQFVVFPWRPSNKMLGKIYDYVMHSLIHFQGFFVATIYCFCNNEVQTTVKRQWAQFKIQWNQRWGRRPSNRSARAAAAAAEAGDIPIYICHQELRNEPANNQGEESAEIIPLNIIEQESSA

T2: rat amylin receptor (rat calcitonin receptor + rat RAMP 3) (rat, UniProt P32214 25-516; Q9JJ73 23-147)
T2 construct: whole, on cells; Membranes prepared from transiently transfected BHK tk'ts 13 cells (Assay VI); also called rAmylin-R; rAmylin
T2 sequence (looked up) 1: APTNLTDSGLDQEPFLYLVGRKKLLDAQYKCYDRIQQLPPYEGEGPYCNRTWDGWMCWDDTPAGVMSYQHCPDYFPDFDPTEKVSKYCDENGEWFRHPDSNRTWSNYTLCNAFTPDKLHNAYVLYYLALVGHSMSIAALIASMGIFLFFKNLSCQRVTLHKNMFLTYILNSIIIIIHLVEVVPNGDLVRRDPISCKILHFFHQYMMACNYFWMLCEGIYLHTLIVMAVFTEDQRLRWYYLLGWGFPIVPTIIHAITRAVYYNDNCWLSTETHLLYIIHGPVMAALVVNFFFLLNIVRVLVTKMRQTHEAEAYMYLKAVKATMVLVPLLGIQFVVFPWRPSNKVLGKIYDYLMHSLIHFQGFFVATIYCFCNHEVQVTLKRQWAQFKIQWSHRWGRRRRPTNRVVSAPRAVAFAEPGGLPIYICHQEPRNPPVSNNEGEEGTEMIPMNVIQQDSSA
T2 sequence (looked up) 2: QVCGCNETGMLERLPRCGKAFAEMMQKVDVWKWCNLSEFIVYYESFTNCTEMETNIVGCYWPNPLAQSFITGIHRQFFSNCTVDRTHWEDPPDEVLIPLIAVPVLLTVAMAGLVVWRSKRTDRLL

T3: rat calcitonin receptor (rat, UniProt P32214 25-516)
T3 construct: whole, on cells; Membranes prepared from transiently transfected BHK tk'ts 13 cells (Assay VIII); also called rCTR; rCT
T3 sequence (looked up): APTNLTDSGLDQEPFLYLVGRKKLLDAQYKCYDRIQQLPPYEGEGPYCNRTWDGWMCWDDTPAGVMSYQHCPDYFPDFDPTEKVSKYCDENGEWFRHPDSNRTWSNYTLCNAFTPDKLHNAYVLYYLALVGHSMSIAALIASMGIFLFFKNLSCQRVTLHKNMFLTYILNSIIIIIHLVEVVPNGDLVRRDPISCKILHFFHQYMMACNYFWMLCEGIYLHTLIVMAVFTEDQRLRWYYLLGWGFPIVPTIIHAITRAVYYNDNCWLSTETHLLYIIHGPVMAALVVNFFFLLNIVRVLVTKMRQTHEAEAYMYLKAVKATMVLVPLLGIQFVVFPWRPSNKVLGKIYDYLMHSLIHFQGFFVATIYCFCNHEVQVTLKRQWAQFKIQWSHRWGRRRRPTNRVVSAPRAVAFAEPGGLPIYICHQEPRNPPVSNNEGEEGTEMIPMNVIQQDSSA

T4: human calcitonin receptor (human, UniProt P30988 25-474)
T4 construct: whole, on cells; Membranes prepared from a stably transfected BHK cell line (Assay VII); also called hCTR; hCT
T4 sequence (looked up): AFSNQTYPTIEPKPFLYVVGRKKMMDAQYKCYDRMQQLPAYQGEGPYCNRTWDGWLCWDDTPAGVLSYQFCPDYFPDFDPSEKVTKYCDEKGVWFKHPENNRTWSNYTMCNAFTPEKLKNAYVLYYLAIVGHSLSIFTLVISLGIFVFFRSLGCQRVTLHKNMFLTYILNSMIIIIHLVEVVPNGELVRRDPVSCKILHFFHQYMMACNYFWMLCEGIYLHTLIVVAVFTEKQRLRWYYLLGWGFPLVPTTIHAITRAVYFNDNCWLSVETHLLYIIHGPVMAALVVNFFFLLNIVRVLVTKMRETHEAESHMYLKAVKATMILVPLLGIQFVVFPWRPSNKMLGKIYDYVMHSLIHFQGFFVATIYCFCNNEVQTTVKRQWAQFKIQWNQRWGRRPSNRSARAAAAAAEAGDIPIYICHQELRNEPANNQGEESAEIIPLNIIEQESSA


Experiments:
[1] = target: T1, human calcitonin receptor; assay: cell-based or functional assay
[2] = target: T2, rat amylin receptor (rat calcitonin …); assay: SPA competition vs 125I-rat amylin, membranes of BHK cells with rat calcitonin receptor + rat RAMP3 (Assay VI)
[3] = target: T3, rat calcitonin receptor; assay: ratio of binding IC50s: rat calcitonin receptor / rat amylin receptor (reference)
[4] = target: T3, rat calcitonin receptor; assay: SPA competition vs 125I-calcitonin, membranes of BHK cells with rat calcitonin receptor (Assay VIII)
[5] = target: T4, human calcitonin receptor; assay: ratio of binding IC50s: human calcitonin receptor / human amylin receptor (reference)
Method in brief: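 IC₅₀ values were derived by one-site competition analysis of SPA counts. Cell membranes (35 ng/μL) with SPA beads were incubated with test compounds for 120 min at 25° C in Hepes buffer, pH 7.4, containing CaCl2, MgCl₂, OA and Tween20.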

Binder | hCTR funct. EC50 [1] [nM] | other results
K([AEEA-γGlu-C20 diacid])CNTATCATQRLAHFLRHSSPNFGAIPSSTNVGSNTY-NH2 (disulfide 2-7; N-terminus assumed; SMILES CC[C@H](C)[C@H](NC(=O)[C@H](C)NC(=O)CNC(=O)[C@H](Cc1ccccc1)NC(=O)[C@H](CC(N)=O)NC(=O)[C@@H]1CCCN1C(=O)[C@H](CO)NC(=O)[C@H](CO)NC(=O)[C@H](Cc1c[nH]cn1)NC(=O)[C@H](CCCNC(=N)N)NC(=O)[C@H](CC(C)C)NC(=O)[C@H](Cc1ccccc1)NC(=O)[C@H](Cc1c[nH]cn1)NC(=O)[C@H](C)NC(=O)[C@H](CC(C)C)NC(=O)[C@H](CCCNC(=N)N)NC(=O)[C@H](CCC(N)=O)NC(=O)[C@@H](NC(=O)[C@H](C)NC(=O)[C@@H]1CSSC[C@H](NC(=O)[C@@H](N)CCCCNC(=O)COCCOCCNC(=O)CC[C@H](NC(=O)CCCCCCCCCCCCCCCCCCC(=O)O)C(=O)O)C(=O)N[C@@H](CC(N)=O)C(=O)N[C@@H]([C@@H](C)O)C(=O)N[C@@H](C)C(=O)N[C@@H]([C@@H](C)O)C(=O)N1)[C@@H](C)O)C(=O)N1CCC[C@H]1C(=O)N[C@@H](CO)C(=O)N[C@@H](CO)C(=O)N[C@H](C(=O)N[C@@H](CC(N)=O)C(=O)N[C@H](C(=O)NCC(=O)N[C@@H](CO)C(=O)N[C@@H](CC(N)=O)C(=O)N[C@H](C(=O)N[C@@H](Cc1ccc(O)cc1)C(N)=O)[C@@H](C)O)C(C)C)[C@@H](C)O, also called compound 69) | 1.25 | 
K([AEEA-AEEA-γGlu-C20 diacid])CNTATCATQRLANFLRHSSPNFGAIPSSTNVGHNTY-NH2 (disulfide 2-7; N-terminus assumed; SMILES CC[C@H](C)[C@H](NC(=O)[C@H](C)NC(=O)CNC(=O)[C@H](Cc1ccccc1)NC(=O)[C@H](CC(N)=O)NC(=O)[C@@H]1CCCN1C(=O)[C@H](CO)NC(=O)[C@H](CO)NC(=O)[C@H](Cc1c[nH]cn1)NC(=O)[C@H](CCCNC(=N)N)NC(=O)[C@H](CC(C)C)NC(=O)[C@H](Cc1ccccc1)NC(=O)[C@H](CC(N)=O)NC(=O)[C@H](C)NC(=O)[C@H](CC(C)C)NC(=O)[C@H](CCCNC(=N)N)NC(=O)[C@H](CCC(N)=O)NC(=O)[C@@H](NC(=O)[C@H](C)NC(=O)[C@@H]1CSSC[C@H](NC(=O)[C@@H](N)CCCCNC(=O)COCCOCCNC(=O)COCCOCCNC(=O)CC[C@H](NC(=O)CCCCCCCCCCCCCCCCCCC(=O)O)C(=O)O)C(=O)N[C@@H](CC(N)=O)C(=O)N[C@@H]([C@@H](C)O)C(=O)N[C@@H](C)C(=O)N[C@@H]([C@@H](C)O)C(=O)N1)[C@@H](C)O)C(=O)N1CCC[C@H]1C(=O)N[C@@H](CO)C(=O)N[C@@H](CO)C(=O)N[C@H](C(=O)N[C@@H](CC(N)=O)C(=O)N[C@H](C(=O)NCC(=O)N[C@@H](Cc1c[nH]cn1)C(=O)N[C@@H](CC(N)=O)C(=O)N[C@H](C(=O)N[C@@H](Cc1ccc(O)cc1)C(N)=O)[C@@H](C)O)C(C)C)[C@@H](C)O, also called compound 97) | 11.8 | 
K([AEEA-AEEA-γGlu-C20 diacid])CNTATCATQRLANFLRHSSPNFGAIPSSTNVGRNTY-NH2 (disulfide 2-7; N-terminus assumed; SMILES CC[C@H](C)[C@H](NC(=O)[C@H](C)NC(=O)CNC(=O)[C@H](Cc1ccccc1)NC(=O)[C@H](CC(N)=O)NC(=O)[C@@H]1CCCN1C(=O)[C@H](CO)NC(=O)[C@H](CO)NC(=O)[C@H](Cc1c[nH]cn1)NC(=O)[C@H](CCCNC(=N)N)NC(=O)[C@H](CC(C)C)NC(=O)[C@H](Cc1ccccc1)NC(=O)[C@H](CC(N)=O)NC(=O)[C@H](C)NC(=O)[C@H](CC(C)C)NC(=O)[C@H](CCCNC(=N)N)NC(=O)[C@H](CCC(N)=O)NC(=O)[C@@H](NC(=O)[C@H](C)NC(=O)[C@@H]1CSSC[C@H](NC(=O)[C@@H](N)CCCCNC(=O)COCCOCCNC(=O)COCCOCCNC(=O)CC[C@H](NC(=O)CCCCCCCCCCCCCCCCCCC(=O)O)C(=O)O)C(=O)N[C@@H](CC(N)=O)C(=O)N[C@@H]([C@@H](C)O)C(=O)N[C@@H](C)C(=O)N[C@@H]([C@@H](C)O)C(=O)N1)[C@@H](C)O)C(=O)N1CCC[C@H]1C(=O)N[C@@H](CO)C(=O)N[C@@H](CO)C(=O)N[C@H](C(=O)N[C@@H](CC(N)=O)C(=O)N[C@H](C(=O)NCC(=O)N[C@@H](CCCNC(=N)N)C(=O)N[C@@H](CC(N)=O)C(=O)N[C@H](C(=O)N[C@@H](Cc1ccc(O)cc1)C(N)=O)[C@@H](C)O)C(C)C)[C@@H](C)O, also called compound 95) | 21.5 | 
K([AEEA-C20 diacid])CNTATCATQRLANFLRHSSPNFGAIPSSTNVGHNTY-NH2 (disulfide 2-7; N-terminus assumed; SMILES CC[C@H](C)[C@H](NC(=O)[C@H](C)NC(=O)CNC(=O)[C@H](Cc1ccccc1)NC(=O)[C@H](CC(N)=O)NC(=O)[C@@H]1CCCN1C(=O)[C@H](CO)NC(=O)[C@H](CO)NC(=O)[C@H](Cc1c[nH]cn1)NC(=O)[C@H](CCCNC(=N)N)NC(=O)[C@H](CC(C)C)NC(=O)[C@H](Cc1ccccc1)NC(=O)[C@H](CC(N)=O)NC(=O)[C@H](C)NC(=O)[C@H](CC(C)C)NC(=O)[C@H](CCCNC(=N)N)NC(=O)[C@H](CCC(N)=O)NC(=O)[C@@H](NC(=O)[C@H](C)NC(=O)[C@@H]1CSSC[C@H](NC(=O)[C@@H](N)CCCCNC(=O)COCCOCCNC(=O)CCCCCCCCCCCCCCCCCCC(=O)O)C(=O)N[C@@H](CC(N)=O)C(=O)N[C@@H]([C@@H](C)O)C(=O)N[C@@H](C)C(=O)N[C@@H]([C@@H](C)O)C(=O)N1)[C@@H](C)O)C(=O)N1CCC[C@H]1C(=O)N[C@@H](CO)C(=O)N[C@@H](CO)C(=O)N[C@H](C(=O)N[C@@H](CC(N)=O)C(=O)N[C@H](C(=O)NCC(=O)N[C@@H](Cc1c[nH]cn1)C(=O)N[C@@H](CC(N)=O)C(=O)N[C@H](C(=O)N[C@@H](Cc1ccc(O)cc1)C(N)=O)[C@@H](C)O)C(C)C)[C@@H](C)O, also called compound 91) [N^ε1-[2-[2-[2-(19-carboxynonadecanoylamino)ethoxy]ethoxy]acetyl]-[Arg17,Pro21,Pro27,His34]-h-amylin] | 1.48 | 
K([γGlu-γGlu-C20 diacid])CNTATCATQRLAHFLRHSSPNFGAIPSSTNVGSNTY-NH2 (disulfide 2-7; N-terminus assumed; SMILES CC[C@H](C)[C@H](NC(=O)[C@H](C)NC(=O)CNC(=O)[C@H](Cc1ccccc1)NC(=O)[C@H](CC(N)=O)NC(=O)[C@@H]1CCCN1C(=O)[C@H](CO)NC(=O)[C@H](CO)NC(=O)[C@H](Cc1c[nH]cn1)NC(=O)[C@H](CCCNC(=N)N)NC(=O)[C@H](CC(C)C)NC(=O)[C@H](Cc1ccccc1)NC(=O)[C@H](Cc1c[nH]cn1)NC(=O)[C@H](C)NC(=O)[C@H](CC(C)C)NC(=O)[C@H](CCCNC(=N)N)NC(=O)[C@H](CCC(N)=O)NC(=O)[C@@H](NC(=O)[C@H](C)NC(=O)[C@@H]1CSSC[C@H](NC(=O)[C@@H](N)CCCCNC(=O)CC[C@H](NC(=O)CC[C@H](NC(=O)CCCCCCCCCCCCCCCCCCC(=O)O)C(=O)O)C(=O)O)C(=O)N[C@@H](CC(N)=O)C(=O)N[C@@H]([C@@H](C)O)C(=O)N[C@@H](C)C(=O)N[C@@H]([C@@H](C)O)C(=O)N1)[C@@H](C)O)C(=O)N1CCC[C@H]1C(=O)N[C@@H](CO)C(=O)N[C@@H](CO)C(=O)N[C@H](C(=O)N[C@@H](CC(N)=O)C(=O)N[C@H](C(=O)NCC(=O)N[C@@H](CO)C(=O)N[C@@H](CC(N)=O)C(=O)N[C@H](C(=O)N[C@@H](Cc1ccc(O)cc1)C(N)=O)[C@@H](C)O)C(C)C)[C@@H](C)O, Analogue of human amylin; also called compound 92) |  | IC50 [2]: 0.668 nM; Ratio rCT/rAmylin binding [3]: 156; IC50 [4]: 104 nM; Ratio hCT/hAmylin binding [5]: 145
